test: soluble fraction after stress (log2 fold change); higher = more stays soluble; pooled small domains, quantitative proteomics; conditions: stress: 75 degC
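Note: 20 min heating vs room temperature control held 20 min.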

Sequence | soluble fraction (log2)
HMLTWNQLGLITKPVVFLDGTGYYARLFEAFEHMISTGFVKENYRAMMNRATSVEEAVRIASSPAPKVD | -0.0438
HMLVGGPDTPSKVTVSFDLGSRQAVDELTERAGAAGGRIGDIDDYPFMYQRQFDDPDGYHYSPFWMKP | -0.177
HMLVTQSITVPMAMSGIRLDAALAMLFPDHSRNRLKAWLDDGHILVDGAVWAGKQRLEGNEEITATLPEAK | -0.673
HMLYDNQLPDWAGQMVKNHGLTISPKALVILVDHIGNDLSRIENEIEKLMLNLGTRKSITEDDVEN | -1.61
HMLYETLKKGDQGTSVKTLQEKLKALGYLTGAADGKYGAGTETAVKSFQKAAGLTETGTADPETLSAVYAA | 0.619
HMLYITEIQKKIMDAFLVVANESNSGTRITMNEIANKVRMTPQAIYRKHFKSVIEISDTIRD | -0.551
HMMEERVIEFANVLRRNGVRVSLAENMDAFRALKSLGISDPLLFRHALRATLIKRGSDIQPFEELFDFFFL | -1.42
HMNAAFMKAERLLAILNILLTGKRVSSTELAKKLEVSVRTVYRDVEALSEAGFPVYATMGRDGGFGLIEGF | -2.09
HMNADAIIGRMGKVTEPITPDGYGRVEIDGDSWKATAVGGVAIAEGTRVSVVSLDSIIITVKTV | -1.44
HMNADAIVGRTGVVTEAIAADGFGRVQIDGDSWKAKASGNNGIDVGAKVRVLRIDSIILTVEK | -1.07
HMNAELSTVQAAEVLNVSRPFLIKLLEDGAIPHRKVGKHRRVRMEDVMSYKAAIDTEREAVLDQLAA | -0.13
HMNAISIDEAKKIALAKVSGASDQHIRIEADHDDGRLVYEGEIHYGRVEYEFEIDGSTGAIIEWDADRK | -0.286
HMNAKKSTLQLDLLKQLLEGNKISLKDFSLSNEISIRTAQRYIEDLLEIFEKNIVKEGDFYSFIS | -3.4
HMNAKNPRALAIQYVFKMQMGNFLHAKTDNQQQEQERIMTLFNEENKNTILPRWGKELLSYINRN | -0.74
HMNDENIIIEEIKYFIKSNQIKEQEKLPSERNLSELFTVSRFSLRKALRHLVDTGYLYVKDKSGYYYQGD | -2.55
HMNDLIKMPYLVGQLYDDVASNQEYADFQFKITEGNDPDKQPGEIMKQDPAADIMVKKNAEVELLVNG | 0.374
HMNDLKEDTITVQSVEYIDSDDGTMVYIKDTNHQVYKQAFKEDESLIRISAGDVLHVKYQPMDNEIHLL | -0.341
HMNDMPELLSIKEASQWATEYLNKNVTTSNIAYLIQYGRIRKIGNNGSTQVLKDDLVKYYKDQK | -0.11
HMNDMWADITINANGKATLVVHTHEIKYLGLTGHLGKMEINGTAKEPVKDSSGDVVDYYFTFTDLDASMF | 0.328
HMNDNFTPDDLNRLARIKDLPQAKKYALELISNKSAKPMKPEKVRWFANQLQKKKSVMDITKMMYDLLLA | -0.423
HMNDNTAINEFKKMVFTRMVHLQIDNAELSKLSGVTNSKILALKYGNSNTLKLGDIVKVAKTLNINLNDL | -2.86
HMNDPFVILGVSKDASQSEILEAYKQKRAYYQERVFDEGDEGAQAARMLTQLDDAYQQAMELSHES | 0.183
HMNDPIESLTPREREVLTLMAEGRTNAAIAAQLVVTEGAVEKHTQHIFAKLGLLPDSAVHRRVKAVLALLS | -2.35
HMNDPNAPITENQLKAIHVLLDKLKVDDNLKHAYIADVLQLDNEPETLKTLTKAQGSMAIERMQLLKDN | 0.736

Sequence | soluble fraction (log2)
HMNDQLIYSDFIRQVQDGQITEVTISGLNIAGTRSDGSVFNTLRPYIEDPKLIDDLLSHNVRIQGAE | 0.168
HMNDRERIGKRIAQLRMEAGISQYKLAELTGLAPGNIARIETGKYSTGIDILSKIGDALGYQLDFI | -2.14
HMNDRLAGMEGQRGEAATNFDQGEGKVKVGDTVWLAKQSDSTVIVEGDQIVVTGSENGLLKVRL | -0.25
HMNDTLGVNIKRLRKEKGMTQDEVAKAVYTTRYNILRYESGKMTPSSEVIERLEKALGVPTGSLAQ | -0.348
HMNDTSLIIDNLMLKLGNNIKNFSEIYSLLRKNLAEYGEEFIKSKVDYVLKNFNDNIEENLKKLLTE | -0.394
HMNDVGKVLNQLGERDRMILLLTYWDELPLKEAARILEVSENNAKIILFRARSRFASLWSAGS | -3.14
HMNEAVVVPDVKGLTLDEADEFFKNSKLRYNVVDSVFSKDVAPGAIVELVPVAGSKVKENRIVFVTINAQ | -0.361
HMNEDTEDIKNINSLVNKLTENNFDIIRDSIVKLINKEHLIPYIIETIIEKSILHHRYVHLYVSILKE | 0.219
HMNEDYSSMVGKTGFALTILRPAGKIMIEEEVFDAVAINGYISKGQEVEVVRYENAQLYVKVK | -1.04
HMNEFGIPDKKLQDIETRVNSMSLEQLNAARSMLIDEQEALNSSTGSASSGRLKEIAAELSTIQKALIAIA | -0.00417
HMNEFNEVVPDSLEGERLDRLLAFIGNISRSEASNIIKGGEVLINGKVVTRPSFKVTLGNRVEFSIRD | -0.531
HMNEGETLYRLRAGDGRARLDKFLAAALPDISRTRFKGLIESGHVRVGGETITEPAYRVKSEAEVELTVPE | 0.0126
HMNEIALETAIEDVESFIQMQNRNLAFSIDEDTDRAVVTVRDSDSGDVIRQIPSEEVLALAERIQDLQQD | 0.0361
HMNEIDDYDIQLLEYLSKGVSQEAMESVFKQAGITPNSKSTIEKRISKLKIYFKALNTTHLVSITKDLGL | -0.647
HMNEKEAEEAAEAQTEVPDVTGMAPAQAKNMLYQAGLSSEYRGEGETVSRQLPPAGETVNRGTKAVLYL | 0.0203
HMNEKGTNSTINEITRISKPGRRVYVGSAEIPKVKSGRGLVLISTSKGVMTGAEAAKAKLGGELLLKV | -0.000493
HMNEKMKEIGLRIKELRELSDISAQGMADHLKIPLETYQEYEDGKKDIPASILFEISQKMEVDMGLLLTGE | -0.476
HMNELTDKQILLFSNKLAHNIPFSSKYSKPGESYEEFAERLANELIDPQKVKLYKPYLEEVGFK | 0.788
HMNEMIFNQKKIGQFFMNPETNSPMIYPLELGHKMKIIELKNGWYNVTDEKTGLNGWVKEEDFGVTKPLDS | -0.346
HMNENDENLRQQAIDASKEVRRWGEPVTLPPMNAHDRRIIHITLEGESDLQTESTGEGNFKSVVISLK | -0.171
HMNEPSSYGYAISVALDRNGLGTVKGGTLYPLLARLEQAAHVETRWEAGDGGPGRKYYTITDSGRS | -0.214
HMNERLKQLRLSLNLNQEEFGKWLGISKSGVSDIESGRRKVTEQHIIMLSNHNISEKWLRTGEGEMFV | -1.21
HMNETNKMPNLVNQTDSSAIAQLNAMELGLKITTKEESSETVLAGYVIRTEPAADTELTKNQAVTVYVS | -0.00951
HMNETTVPDVINQNISTGKIIIEDADLEYRIQYIPSEKSSSIGTIINSIPIYGKRVKSGTIVDLKVLG | -0.248

Sequence | soluble fraction (log2)
HMNETVTNQTVLDLLKEGFTSEEIIGAIENSSTRTITYDINFMRQLKAAGADVTLTTYLQKIAKKDM | -0.136
HMNEWSIDINLADEKQWTAKTKLSPAIIQNIIRYKNYLGGFTNLNQIKKVYGFTEANYYLLKPHLQLGK | -0.837
HMNFDLDSFKQRMTLDGLYFGNEKQDVIALNNLSERYQLTWFDVYQLAKETSSNHKILPKRILVKLQQ | -2.09
HMNFEIEVTENGKRIDSYLAEELDLSRSKVQKLIKQELVTVNGKVVSNNYNVKLGDTILVNDD | 0.113
HMNFFQEIGNSILIELNKKNWTQSMFAHKIGVSDEVFKQIVQGKKALNAVEIAKIANTLDVDPEKLLRK | -1.08
HMNFTEAEQRFHFLEDQRQRGVLSLEQYRAELAQLRVTDAWGRLWMLQEQTGQWFVFHEGQWRPSQ | -0.408
HMNGEDVTDAIRLPQISQYASVVSAYPGVRAFLLEMQRDFARKGSVIMDGRDIGTVVLPEAEVKIFLT | -0.367
HMNGGPHYLRDVRTSLGLSQADLAKAVGTSANMIHYLESGERALTLKWIRRISEALNVSPMRLIN | -2.06
HMNGLPDLSRYTGVSIVDGLASVGSDSSFAYRAKIAETLGISDYKGSAGQNLEMIRKLGGKV | -0.517
HMNGTGSVYKLSGKRRNPWRAVVTNGWAYNEEKGKLVQNRVTIGYYHTRDEAIQAIANYNSSP | -1.53
HMNGVFIMHTPDGKVLRTEEGEEAVITLFNWSGQLLWSKTSLGQLPLPEGTQGVLQVQYKSGDQHTIKT | -1.28
HMNHAPSLMRKIRRGLKEGRNPDDLLVNAKSISDYYYRSLSFYLLAPHFSSKSKQYKQVISLANS | -0.064
HMNHHTEQQLKALSNKVKDHRMRMRLLAVAHFKAGKNKADVARTLNVSRRMVNEWVANYFKGGVSALES | -3.43
HMNHLLYPNPANNFIWIKNSTSNTAVIYNLQGVMSKVEVSEEGKIDISRFSPGLYMIKQGERIYKFTIA | -1.75
HMNHLSYEQRLKIKEMLDGGFKKIDIARALGVHNATIYREIERGSVNGIYNPNKSEEQYRDHLSEK | 0.378
HMNHYIGVDRAKEIALNHANLSETDVVFTKEKLENDDGGAEYEIEFHSGRTEYDYTIDAASGNIIEYDVDY | 0.324
HMNIDGLIGKKALVTADIDNVNSKGQIKINGLEWTARSVDDEPIPMGTEVEITAISGVKAIVRKG | 0.139
HMNIEANLEDILRRAMPSAAKLILENSLNINKIIGTGKEGRITKGDVLLYLKDKNLILENILN | -0.079
HMNIEEAESILKEIKTVLTDKEYEVYTLRAKGFTYQEIASLLNTTTKSVDGALSRIKTKINNIK | -0.674
HMNIFKLYEENIGPLTPMIADILKEDEAEFPDYWIREAIEIAVKKNARNWKYVHAVLESWQKE | -3.47
HMNILKAPMPGLILDVIVKESDLVKKGDPVIILEAMKMENILSSPVDGIVKEIKVNPQQTVEKNNTLIKFE | -0.0843
HMNILNFSENIIKLRHKKGITQEELADFVGVTKASVSKWETKQSLPDIMLLPRLAAYFDVTVDELLGYEP | -2.16

Reference: the domain aggregation screens of Martell et al. (2025)
